The record followed here is patent US20120316071A1 (published 2012).

Substitutions are numbered along the chain they refer to. In names and notes the source's numbering stands.

In experiment [1] the target is T1, Recombinant Human DLL4 (delta-like protein 4) (human, UniProt Q9NR61 27-529).
T1 construct: Bought recombinant human DLL4 (R&D Systems Cat#1506-D4/CF); also called rHuman DLL4; Delta-like 4
Put plainly: ELISA, DLL4 coated on plate, Fab in solution, absorbance at 450 nm.

Experiment [2] has as its target T1, Recombinant Human DLL4 (delta-like …). Put plainly: 96-well plate ECL binding assay, DLL4 immobilised, Fab in solution.
Experiment [3] concerns the target T2, Recombinant Human DLL4 (human, UniProt Q9NR61 27-524).
T2 construct: Bought recombinant human DLL4 (R&D Systems 1506-D4/CF); also called delta-like protein 4; rHuman DLL4
Nature of the experiment: ELISA on plate-coated DLL4, Fab at 0.74 nM (3-fold serial dilution).

Experiment [4] concerns the target T2, Recombinant Human DLL4. Nature of the experiment: ELISA on plate-coated DLL4, Fab at 2.22 nM (3-fold serial dilution).
Experiment [5] has as its target T2, Recombinant Human DLL4. Nature of the experiment: ECL (MSD) binding assay, Fab on immobilised recombinant human DLL4; Fab concentration not given in the table.
Experiment [6] deals with T2, Recombinant Human DLL4. Nature of the experiment: ELISA on plate-coated DLL4, Fab at 6.67 nM (3-fold serial dilution).
Experiment [7] has as its target T2, Recombinant Human DLL4. Put plainly: ELISA on plate-coated DLL4, Fab at 20 nM (3-fold serial dilution).
The target of experiment [8] is T3, Recombinant Human DLL4 (R&D Systems Cat#1506-D4/CF) (human, UniProt Q9NR61 27-524).
T3 construct: Bought recombinant protein; also called delta-like protein 4; rHuman DLL4
Put plainly: ECL multispot (MSD) binding assay, antigen spotted on plate.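 Also: purified Fab incubated 1 h at 20 °C on antigen spots, detected with TAG-labelled antibody, electrochemiluminescence compared with each well's blank, signal-to-blank ratio ≥4 counted as hit.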

The target of experiment [9] is T4, rHuman CD44/Fc Chimera, CF (R&D Systems Cat#3660-CD) (human, UniProt P16070 21-220).
T4 construct: Bought recombinant protein
The experiment is described as above.

Experiment [10] addresses T5, rHuman IGF-1 sR, (IGF-1 sR), CF (R&D Systems Cat#391-GR) (human, UniProt P08069 31-932).
T5 construct: Bought recombinant soluble receptor; also called insulin-like growth factor-1 soluble receptor
The description is as above.

Experiment [11] concerns the target T6, rHuman Notch-1/Fc Chimera, CF (R&D Systems Cat#3647-TK) (human, UniProt P46531 19-526).
T6 construct: Bought recombinant protein
The description is as above.

The target in experiment [12] is T7, rHuman P-Cadherin/Fc Chimera, CF (R&D Systems Cat#861-PC) (human, UniProt P22223 108-654).
T7 construct: Bought recombinant protein
Described as above.

Experiment [13] deals with T8, rHuman HGF R/c-MET/Fc Chimera, CF (R&D Systems Cat#358-MT/CF) (human, UniProt P08581 25-932).
T8 construct: Bought recombinant protein; also called HGF R/Fc; hepatocyte growth factor receptor
The description is as above.

Experiment [14] has as its target T9, rHuman EGF R/Fc Chimera, CF (R&D Systems Cat#344-ER) (human, UniProt P00533 25-645).
T9 construct: Bought recombinant protein; also called epidermal growth factor receptor
The experiment is described as above.

In experiment [15] the target is T10, rHuman ErbB2/Fc Chimera, CF (R&D Systems Cat#1129-ER) (human, UniProt P04626 23-652).
T10 construct: Bought recombinant protein; also called human epidermal growth factor 2 receptor
Described as above.

Experiment [16] concerns the target T11, rHuman CD44/Fc Chimera, CF (human, UniProt P16070 21-220).
T11 construct: Bought from R&D Systems; not shown: Fc of the bought chimera
Nature of the experiment: ECL Multispot (MSD) assay; antigen spotted on plate, Fab in solution.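 Also: fab bound 1 h at 20 °C, detected by TAG-labelled antibody electrochemiluminescence, signal relative to each well's blank, ratio of 4 or more marks a hit.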

Experiment [17] concerns the target T12, rHuman Notch-1/Fc Chimera, CF (human, UniProt P46531 19-526).
T12 construct: Bought from R&D Systems; not shown: Fc of the bought chimera
The description is as above.

Experiment [18] addresses T13, rHuman ErbB2/Fc Chimera, CF (human, UniProt P04626 23-652).
T13 construct: Bought from R&D Systems; also called human epidermal growth factor 2 receptor; not shown: Fc of the bought chimera
The description is as above.

Experiment [19] has as its target T14, Recombinant Human DLL4 (human, UniProt Q9NR61 27-524).
T14 construct: Bought from R&D Systems; also called delta-like protein 4; rHuman DLL4
The experiment is described as above.

Experiment [20] has as its target T15, rHuman EGF R/Fc Chimera, CF (human, UniProt P00533 25-645).
T15 construct: Bought from R&D Systems; also called epidermal growth factor receptor; not shown: Fc of the bought chimera
The experiment is described as above.

Experiment [21] has as its target T16, rHuman Erythropoietin R/Fc Chimera, CF (human, UniProt P19235 25-250).
T16 construct: Bought from R&D Systems; also called EPO R; EPO R/Fc; not shown: Fc of the bought chimera
T16 sequence (looked up): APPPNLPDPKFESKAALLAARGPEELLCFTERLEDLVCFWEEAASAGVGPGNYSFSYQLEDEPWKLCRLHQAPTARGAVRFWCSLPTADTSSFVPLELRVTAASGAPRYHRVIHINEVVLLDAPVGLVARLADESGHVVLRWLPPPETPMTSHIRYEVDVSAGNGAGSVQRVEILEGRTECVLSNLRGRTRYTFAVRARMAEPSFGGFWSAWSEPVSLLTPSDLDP
The experiment is described as above.

The target in experiment [22] is T17, rHuman IGF-1 sR, (IGF-1 sR), CF (human, UniProt P08069 31-932).
T17 construct: Bought from R&D Systems; also called insulin-like growth factor-1 soluble receptor
The description is as above.

Experiment [23] addresses T18, rHuman HGF R/c-MET/Fc Chimera, CF (human, UniProt P08581 25-932).
T18 construct: Bought from R&D Systems; also called HGF R/Fc; hepatocyte growth factor receptor; not shown: Fc of the bought chimera
The experiment is described as above.

T8 sequence (P08581 25-932, change not shown): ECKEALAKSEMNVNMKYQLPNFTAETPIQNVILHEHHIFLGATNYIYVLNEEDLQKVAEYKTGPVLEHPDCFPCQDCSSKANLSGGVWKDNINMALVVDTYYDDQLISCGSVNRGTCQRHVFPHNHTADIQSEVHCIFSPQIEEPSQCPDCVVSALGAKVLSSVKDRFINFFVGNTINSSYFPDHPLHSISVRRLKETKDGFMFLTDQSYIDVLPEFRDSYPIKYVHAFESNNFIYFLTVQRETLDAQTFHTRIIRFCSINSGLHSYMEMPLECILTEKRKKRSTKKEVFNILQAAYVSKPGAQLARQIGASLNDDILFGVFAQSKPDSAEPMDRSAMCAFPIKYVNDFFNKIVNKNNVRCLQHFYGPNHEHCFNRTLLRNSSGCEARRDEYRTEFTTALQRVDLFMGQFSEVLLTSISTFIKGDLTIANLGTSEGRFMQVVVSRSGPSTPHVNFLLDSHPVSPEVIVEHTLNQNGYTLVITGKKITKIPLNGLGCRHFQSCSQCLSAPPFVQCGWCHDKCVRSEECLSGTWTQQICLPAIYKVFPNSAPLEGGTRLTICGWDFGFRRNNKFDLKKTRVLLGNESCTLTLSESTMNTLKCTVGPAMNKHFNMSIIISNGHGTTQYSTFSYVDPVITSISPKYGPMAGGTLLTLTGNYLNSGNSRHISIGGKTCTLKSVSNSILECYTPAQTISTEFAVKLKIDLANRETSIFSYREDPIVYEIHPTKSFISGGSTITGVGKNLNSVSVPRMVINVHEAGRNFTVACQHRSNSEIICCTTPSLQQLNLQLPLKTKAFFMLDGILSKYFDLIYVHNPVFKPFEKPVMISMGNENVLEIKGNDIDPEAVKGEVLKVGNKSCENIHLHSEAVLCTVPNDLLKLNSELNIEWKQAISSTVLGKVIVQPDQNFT
T18 sequence (P08581 25-932, change not shown): as above

B1: Fab VH1-46_IGHD6-6*01_IGHJ1*01 S102A/S103P/S104F/H111F & L6_IGKJ1*01 S28N/S30D/S31H S52L (Fab, V domains shown)
VH: QVQLVQSGAEVKKPGASVKVSCKASGYTFTSYYMHWVRQAPGQGLEWMGIINPSGGSTSYAQKFQGRVTMTRDTSTSTVYMELSSLRSEDTAVYYCAREEYAPFSAEYFQFWGQGTLVTVSS
VL: EIVLTQSPATLSLSPGERATLSCRASQNVDHYLAWYQQKPGQAPRLLIYDALNRATGIPARFSGSGSGTDFTLTISSLEPEDFAVYYCQQRSNWPPWTFGQGTKVEIKR
notes: Fab made in E. coli; The rest is CH1 from plasmid A (His6 and Flag tags) and kappa CL from plasmid C; also called H:APFF & L:NDH S52L
On to B1, for which the “ELISA (Avgerage signal-noise)” value in experiment [1] is 0.285. Also, the “ECL signal” value in experiment [2] is 17800.

B2: Fab VH1-46_IGHD6-6*01_IGHJ1*01 S102A/S103P/S104F/H111F I51A/N52L/S54T/G56H & L6_IGKJ1*01 S28N/S30D/S31H (Fab, V domains shown)
VH: B1 VH with I51A, N52L, S54T, G56H
VL: B1 VL with L52S
notes: Fab expressed in E. coli: VH joined to CH1 from Plasmid A (His6 and Flag tags), VL joined to kappa CL from Plasmid C; also called H:APFF ALTH & L:NDH
Take B2: the ELISA signal in [3] turned out to be 0.024; in experiment [4], 0.069; in experiment [6], 0.232; in [7], 0.391. Also, the “ECL signal” value in [5] was determined as 1840.

B3: Fab VH1-46_IGHD6-6*01_IGHJ1*01 S102A/S103P/S104F/H111F & L6_IGKJ1*01 S28N/S30D/S31H S52W (Fab, V domains shown)
VH: B1 VH
VL: B1 VL with L52W
notes: Fab with CH1 (plasmid A, His6 and Flag tags) and kappa CL (plasmid C); also called H:APFF & L:NDH S52W
B3: the “ELISA (Avgerage signal-noise)” value in experiment [1] stood at 0.177. In addition, in [2], the “ECL signal” value was 16300.

B4: Fab VH1-46_IGHD6-6*01_IGHJ1*01 S102A/S103P/S104F/H111F & L6_IGKJ1*01 S28N/S30D/S31H N53G (Fab, V domains shown)
VH: B1 VH
VL: B1 VL with L52S, N53G
notes: Fab with CH1 (plasmid A, His6 and Flag tags) and kappa CL (plasmid C); also called H:APFF & L:NDH N53G
B4: in experiment [1], the “ELISA (Avgerage signal-noise)” value stood at 0.163. Besides, the “ECL signal” value in experiment [2] is 20600.

B5: Fab VH1-46_IGHD6-6*01_IGHJ1*01 S102A/S103P/S104F/H111F I51A/N52L/S54T/G56H & L6_IGKJ1*01 S28N/S30D/S31H S52L/A55S (Fab, V domains shown)
VH: B1 VH with I51A, N52L, S54T, G56H
VL: B1 VL with A55S
notes: Fab expressed in E. coli: VH joined to CH1 from Plasmid A (His6 and Flag tags), VL joined to kappa CL from Plasmid C; also called H:APFF ALTH & L:NDH LS
For the molecule B5, the ELISA signal in experiment [3] came out at 0.046; in [4], 0.04; in experiment [6] it was 0.282; in [7] it was 0.458. Further, the “ECL signal” value in experiment [5] was 3720.

B6: Fab VH1-46_IGHD6-6*01_IGHJ1*01 S102A/S103P/S104F/H111F & L6_IGKJ1*01 S28N/S30D/S31H N53E (Fab, V domains shown)
VH: B1 VH
VL: B1 VL with L52S, N53E
notes: Fab with CH1 (plasmid A, His6 and Flag tags) and kappa CL (plasmid C); also called H:APFF & L:NDH N53E
Take B6: the “ELISA (Avgerage signal-noise)” value in experiment [1] was determined as 0.204. Also, the “ECL signal” value in experiment [2] came out at 17600.

B7: Fab VH1-46_IGHD6-6*01_IGHJ1*01 S102A/S103P/S104F/H111F (APFF) & L6_IGKJ1*01 S31A (Fab, V domains shown)
VH: B1 VH
VL: B1 VL with N28S, D30S, H31A, L52S
notes: Tested as Fab (CH1 with His6/Flag tags, kappa CL) made in E. coli; also called APFF / S31A
With B7, the ECL signal in experiment [8] was 192000; in experiment [9], 406; in experiment [10], 334; in experiment [11], 424; in [12], 361; in experiment [13], 309. Moreover, the ECL signal in experiment [14] is 415; in experiment [15], 383.

B8: Fab VH1-46_IGHD6-6*01_IGHJ1*01 S102A/S103P/S104F/H111F (APFF) & L6_IGKJ1*01 S28T (Fab, V domains shown)
VH: B1 VH
VL: B1 VL with N28T, D30S, H31S, L52S
notes: Fab made in E. coli; the variable domains were cloned into Plasmid A (CH1, His and Flag tags) and Plasmid C (kappa CL); also called APFF / S28T
Turning to B8, the ECL signal in experiment [16] stood at 368; in [17], 249; in experiment [18], 271; in experiment [19], 159000; in experiment [20], 321; in experiment [21], 380. Further, the ECL signal in [22] was 355; in [23], 371.
